These results are taken from publication PMC7935256.

A word on the stoichiometry N: it is the number of molecules, sites or subunits per partner or assembly. A word on the Kd: it is the constant that tells how readily two partners part at equilibrium. A low value points to tighter binding.

Experiment [1] has as its target DENV2 PVP94/07 strain recombinant E protein ectodomain (residues 1-394) (dengue virus serotype 2, strain PVP94/07). As to the kind of experiment: dynamic light scattering; recombinant E proteins in 20 mM Tris pH 8.0, 200 mM NaCl, 0.025% Tween-20.
Experiment [2] deals with E protein on DENV1 strain WestPac 74 virus particles (dengue virus serotype 1, strain WestPac 74). Nature of the experiment: cryo-EM structure.
Experiment [3] deals with DENV2 NGC strain recombinant E protein ectodomain (residues 1-394) (dengue virus serotype 2, strain NGC). Nature of the experiment: dynamic light scattering; recombinant E proteins in 20 mM Tris pH 8.0, 200 mM NaCl, 0.025% Tween-20.
Experiment [4] concerns the target human monoclonal antibody (HMAb) 1C19, IgG (human). Nature of the experiment: BLI.
Experiment [5] deals with DENV1 PVP159 strain recombinant E protein ectodomain (residues 1-394) (dengue virus serotype 1, strain PVP159). As to the kind of experiment: dynamic light scattering; recombinant E proteins in 20 mM Tris pH 8.0, 200 mM NaCl, 0.025% Tween-20.
The target of experiment [6] is DENV1 WestPac74 strain recombinant E protein ectodomain (residues 1-394) (dengue virus serotype 1, strain WestPac 74). The experiment is described as above.

human monoclonal antibody (HMAb) 1C19, IgG (human), sequence (heavy, as listed by the source, chain 1 of 2): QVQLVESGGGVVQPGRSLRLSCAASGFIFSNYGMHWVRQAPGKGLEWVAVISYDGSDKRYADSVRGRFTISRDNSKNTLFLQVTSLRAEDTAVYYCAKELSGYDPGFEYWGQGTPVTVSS
human monoclonal antibody (HMAb) 1C19, IgG (human), sequence (light, as listed by the source, chain 2 of 2): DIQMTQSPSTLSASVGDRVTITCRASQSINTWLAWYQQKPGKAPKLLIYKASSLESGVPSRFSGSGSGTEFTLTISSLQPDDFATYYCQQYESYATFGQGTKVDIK

As for “DENV2 PVP94/07 strain recombinant E protein ectodomain (residues 1-394) (domain or fragment)”, the stoichiometry N in experiment [1] stood at 2. Take Fab 1C19: in experiment [2], the copies of Fab bound per virus particle (180 E proteins), Class I was determined as 60 copies and the copies of Fab bound per virus particle (180 E proteins), Class II was determined as 60 copies. Take “DENV2 NGC strain recombinant E protein ectodomain (residues 1-394) (domain or fragment)”: the stoichiometry N in experiment [3] came out at 2. For “DENV1 PVP159 strain recombinant E protein ectodomain (residues 1-394) (domain or fragment)”, the Kd in experiment [4] amounted to 712 pM. Besides, the stoichiometry N in experiment [5] is 2. For the substance “DENV1 WestPac74 strain recombinant E protein ectodomain (residues 1-394) (domain or fragment)”, the stoichiometry N in experiment [6] turned out to be 2.
